First the molecules themselves.
T1: EsCas13d, nuclease-dead (Eubacterium siraeum, UniProt B0MS50, R295A;H300A;R849A;H854A)
T1 sequence: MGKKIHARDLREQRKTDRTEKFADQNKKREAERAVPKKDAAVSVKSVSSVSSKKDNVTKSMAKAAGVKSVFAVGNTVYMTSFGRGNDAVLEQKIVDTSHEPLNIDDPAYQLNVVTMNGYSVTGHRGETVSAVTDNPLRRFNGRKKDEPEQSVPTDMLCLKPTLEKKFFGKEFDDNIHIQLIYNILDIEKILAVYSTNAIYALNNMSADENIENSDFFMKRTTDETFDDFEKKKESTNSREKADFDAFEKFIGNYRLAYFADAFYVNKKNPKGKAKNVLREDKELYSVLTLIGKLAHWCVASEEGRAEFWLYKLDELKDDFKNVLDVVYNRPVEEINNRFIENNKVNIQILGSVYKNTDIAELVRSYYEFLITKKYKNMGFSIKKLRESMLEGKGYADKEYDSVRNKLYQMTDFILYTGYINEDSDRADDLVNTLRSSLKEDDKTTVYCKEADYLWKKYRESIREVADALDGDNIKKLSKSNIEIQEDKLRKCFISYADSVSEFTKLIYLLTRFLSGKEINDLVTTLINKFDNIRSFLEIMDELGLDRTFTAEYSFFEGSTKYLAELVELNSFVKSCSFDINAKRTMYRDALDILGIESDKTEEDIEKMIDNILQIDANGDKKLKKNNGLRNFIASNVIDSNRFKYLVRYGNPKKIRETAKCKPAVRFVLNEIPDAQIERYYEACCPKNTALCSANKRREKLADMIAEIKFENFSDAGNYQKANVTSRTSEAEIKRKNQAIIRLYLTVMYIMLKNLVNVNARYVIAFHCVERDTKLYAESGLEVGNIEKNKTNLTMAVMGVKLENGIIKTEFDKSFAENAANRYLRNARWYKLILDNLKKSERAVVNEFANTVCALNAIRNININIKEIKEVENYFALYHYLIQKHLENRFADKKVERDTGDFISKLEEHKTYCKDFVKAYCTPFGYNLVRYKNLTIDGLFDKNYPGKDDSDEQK

B1: target 1 G5A,U10C (mixed)
RNA 1: CACCCGUGCAAAAAUGCAGGGGUCUAAAACUGAGCGGAUAACCUCUCUAUGG
RNA 2: GGGAAUGGAUCCACAUCUACGAAUUCGUACCAUAGAGAGGUCAUCCACUCACCGAGAUCGGAAGAGCACACGU
B2: target 1 C2G,A20C (mixed)
RNA 1: CACCCGUGCAAAAAUGCAGGGGUCUAAAACUGAGCGGAUAACCUCUCUAUGG
RNA 2: GGGAAUGGAUCCACAUCUACGAAUUCGUACCCUAGAGAGGUUAUCCGCUGACCGAGAUCGGAAGAGCACACGU
B3: target 1 C2U,C6G (mixed)
RNA 1: CACCCGUGCAAAAAUGCAGGGGUCUAAAACUGAGCGGAUAACCUCUCUAUGG
RNA 2: GGGAAUGGAUCCACAUCUACGAAUUCGUACCAUAGAGAGGUUAUCGGCUUACCGAGAUCGGAAGAGCACACGU
B4: target 1 U11A,G17C (mixed)
RNA 1: CACCCGUGCAAAAAUGCAGGGGUCUAAAACUGAGCGGAUAACCUCUCUAUGG
RNA 2: GGGAAUGGAUCCACAUCUACGAAUUCGUACCAUACAGAGGAUAUCCGCUCACCGAGAUCGGAAGAGCACACGU
B5: target 1 insU 3' of 6,insU 3' of 5 (mixed)
RNA 1: CACCCGUGCAAAAAUGCAGGGGUCUAAAACUGAGCGGAUAACCUCUCUAUGG
RNA 2: GGGAAUGGAUCCACAUCUACGAAUUCGUACCAUAGAGAGGUUAUCCUGUCUCACCGAGAUCGGAAGAGCACACGU
B6: target 1 insA 3' of 17,insG 3' of 9 (mixed)
RNA 1: CACCCGUGCAAAAAUGCAGGGGUCUAAAACUGAGCGGAUAACCUCUCUAUGG
RNA 2: GGGAAUGGAUCCACAUCUACGAAUUCGUACCAUAGAAGAGGUUAGUCCGCUCACCGAGAUCGGAAGAGCACACGU
B7: target 1 insA 3' of 17,insU 3' of 12 (mixed)
RNA 1: CACCCGUGCAAAAAUGCAGGGGUCUAAAACUGAGCGGAUAACCUCUCUAUGG
RNA 2: GGGAAUGGAUCCACAUCUACGAAUUCGUACCAUAGAAGAGGUUUAUCCGCUCACCGAGAUCGGAAGAGCACACGU
B8: target 1 del7,del15 (mixed)
RNA 1: CACCCGUGCAAAAAUGCAGGGGUCUAAAACUGAGCGGAUAACCUCUCUAUGG
RNA 2: GGGAAUGGAUCCACAUCUACGAAUUCGUACCAUAGAAGGUUAUCGCUCACCGAGAUCGGAAGAGCACACGU
B9: target 1 insC 3' of 19,insU 3' of 7 (mixed)
RNA 1: CACCCGUGCAAAAAUGCAGGGGUCUAAAACUGAGCGGAUAACCUCUCUAUGG
RNA 2: GGGAAUGGAUCCACAUCUACGAAUUCGUACCAUCAGAGAGGUUAUCUCGCUCACCGAGAUCGGAAGAGCACACGU
B10: target 1 insC 3' of 17,insU 3' of 15 (mixed)
RNA 1: CACCCGUGCAAAAAUGCAGGGGUCUAAAACUGAGCGGAUAACCUCUCUAUGG
RNA 2: GGGAAUGGAUCCACAUCUACGAAUUCGUACCAUAGCAGUAGGUUAUCCGCUCACCGAGAUCGGAAGAGCACACGU
B11: target 1 insU 3' of 6,insU 3' of 2 (mixed)
RNA 1: CACCCGUGCAAAAAUGCAGGGGUCUAAAACUGAGCGGAUAACCUCUCUAUGG
RNA 2: GGGAAUGGAUCCACAUCUACGAAUUCGUACCAUAGAGAGGUUAUCCUGCUCUACCGAGAUCGGAAGAGCACACGU
B12: target 1 complement block 18-20 (mixed)
RNA 1: CACCCGUGCAAAAAUGCAGGGGUCUAAAACUGAGCGGAUAACCUCUCUAUGG
RNA 2: GGGAAUGGAUCCACAUCUACGAAUUCGUACCUAUGAGAGGUUAUCCGCUCACCGAGAUCGGAAGAGCACACGU
B13: target 1 G12U,C21A (mixed)
RNA 1: CACCCGUGCAAAAAUGCAGGGGUCUAAAACUGAGCGGAUAACCUCUCUAUGG
RNA 2: GGGAAUGGAUCCACAUCUACGAAUUCGUACAAUAGAGAGUUUAUCCGCUCACCGAGAUCGGAAGAGCACACGU
B14: target 1 A18C,C21U (mixed)
RNA 1: CACCCGUGCAAAAAUGCAGGGGUCUAAAACUGAGCGGAUAACCUCUCUAUGG
RNA 2: GGGAAUGGAUCCACAUCUACGAAUUCGUACUAUCGAGAGGUUAUCCGCUCACCGAGAUCGGAAGAGCACACGU
B15: target 1 insU 3' of 13,insG 3' of 9 (mixed)
RNA 1: CACCCGUGCAAAAAUGCAGGGGUCUAAAACUGAGCGGAUAACCUCUCUAUGG
RNA 2: GGGAAUGGAUCCACAUCUACGAAUUCGUACCAUAGAGAGUGUUAGUCCGCUCACCGAGAUCGGAAGAGCACACGU
B16: target 1 G5C,G12C (mixed)
RNA 1: CACCCGUGCAAAAAUGCAGGGGUCUAAAACUGAGCGGAUAACCUCUCUAUGG
RNA 2: GGGAAUGGAUCCACAUCUACGAAUUCGUACCAUAGAGAGCUUAUCCCCUCACCGAGAUCGGAAGAGCACACGU
B17: target 1 insU 3' of 4,insG 3' of 2 (mixed)
RNA 1: CACCCGUGCAAAAAUGCAGGGGUCUAAAACUGAGCGGAUAACCUCUCUAUGG
RNA 2: GGGAAUGGAUCCACAUCUACGAAUUCGUACCAUAGAGAGGUUAUCCGCUUCGACCGAGAUCGGAAGAGCACACGU
B18: target 1 C4A,U19C (mixed)
RNA 1: CACCCGUGCAAAAAUGCAGGGGUCUAAAACUGAGCGGAUAACCUCUCUAUGG
RNA 2: GGGAAUGGAUCCACAUCUACGAAUUCGUACCACAGAGAGGUUAUCCGAUCACCGAGAUCGGAAGAGCACACGU
B19: target 1 U19G,C22A (mixed)
RNA 1: CACCCGUGCAAAAAUGCAGGGGUCUAAAACUGAGCGGAUAACCUCUCUAUGG
RNA 2: GGGAAUGGAUCCACAUCUACGAAUUCGUAACAGAGAGAGGUUAUCCGCUCACCGAGAUCGGAAGAGCACACGU
B20: target 1 del14 (mixed)
RNA 1: CACCCGUGCAAAAAUGCAGGGGUCUAAAACUGAGCGGAUAACCUCUCUAUGG
RNA 2: GGGAAUGGAUCCACAUCUACGAAUUCGUACCAUAGAGGGUUAUCCGCUCACCGAGAUCGGAAGAGCACACGU
B21: target 1 insU 3' of 14,insU 3' of 14 (mixed)
RNA 1: CACCCGUGCAAAAAUGCAGGGGUCUAAAACUGAGCGGAUAACCUCUCUAUGG
RNA 2: GGGAAUGGAUCCACAUCUACGAAUUCGUACCAUAGAGAUUGGUUAUCCGCUCACCGAGAUCGGAAGAGCACACGU
B22: target 1 insC 3' of 15,insG 3' of 10 (mixed)
RNA 1: CACCCGUGCAAAAAUGCAGGGGUCUAAAACUGAGCGGAUAACCUCUCUAUGG
RNA 2: GGGAAUGGAUCCACAUCUACGAAUUCGUACCAUAGAGCAGGUUGAUCCGCUCACCGAGAUCGGAAGAGCACACGU
B23: target 1 insA 3' of 15,insG 3' of 8 (mixed)
RNA 1: CACCCGUGCAAAAAUGCAGGGGUCUAAAACUGAGCGGAUAACCUCUCUAUGG
RNA 2: GGGAAUGGAUCCACAUCUACGAAUUCGUACCAUAGAGAAGGUUAUGCCGCUCACCGAGAUCGGAAGAGCACACGU
B24: target 1 insU 3' of 17,insU 3' of 4 (mixed)
RNA 1: CACCCGUGCAAAAAUGCAGGGGUCUAAAACUGAGCGGAUAACCUCUCUAUGG
RNA 2: GGGAAUGGAUCCACAUCUACGAAUUCGUACCAUAGUAGAGGUUAUCCGCUUCACCGAGAUCGGAAGAGCACACGU
B25: target 1 insA 3' of 19,insG 3' of 7 (mixed)
RNA 1: CACCCGUGCAAAAAUGCAGGGGUCUAAAACUGAGCGGAUAACCUCUCUAUGG
RNA 2: GGGAAUGGAUCCACAUCUACGAAUUCGUACCAUAAGAGAGGUUAUCGCGCUCACCGAGAUCGGAAGAGCACACGU
B26: target 1 C2U,G13C (mixed)
RNA 1: CACCCGUGCAAAAAUGCAGGGGUCUAAAACUGAGCGGAUAACCUCUCUAUGG
RNA 2: GGGAAUGGAUCCACAUCUACGAAUUCGUACCAUAGAGACGUUAUCCGCUUACCGAGAUCGGAAGAGCACACGU
B27: target 1 C6A,A16C (mixed)
RNA 1: CACCCGUGCAAAAAUGCAGGGGUCUAAAACUGAGCGGAUAACCUCUCUAUGG
RNA 2: GGGAAUGGAUCCACAUCUACGAAUUCGUACCAUAGCGAGGUUAUCAGCUCACCGAGAUCGGAAGAGCACACGU

The results in this text go back to article PMC10786891, “Massively parallel profiling of RNA-targeting CRISPR-Cas13d”.

The series has as its target T1, EsCas13d, nuclease-dead. Nature of the series: crRNA (strand 1, pre-loaded); Mg2+; 40 mM Tris-HCl pH 7.5, 150 mM NaCl, 6 mM MgCl2, 1 mM DTT, 0.1% Tween-20, 0.2 mg/ml BSA; 25 C; 10 min per concentration, then washed. The settings on record: tags: His6-TwinStrep-SUMO cleaved; N-terminal SNAP kept (SNAP-Surface 488); label: 3' end held by stalled T7 RNA polymerase.
What is called Kd is a measure of binding affinity in units of concentration. B1 yielded a Kd of 0.047 ± 0.005 µM.

In the case of B2, binding was put at a Kd of 0.0218 ± 0.0011 µM. This Kd is about 2.2-fold lower than that of the molecule before. Under B3 stands 0.0079 ± 0.0003 µM. Under B4 stands roughly 0.07 µM. Molecule B5 yielded a Kd of 0.0143 ± 0.0006 µM.

B6 registered a dissociation constant (Kd) of 0.0222 ± 0.0025 µM. Molecule B7 showed a Kd of 0.0104 ± 0.0006 µM. The molecule B8 came in with a Kd of 0.0173 ± 0.0007 µM. B9 registered a Kd of 0.062 ± 0.007 µM. Molecule B10 displayed a Kd of 0.0191 ± 0.001 µM. This Kd lies about 3.2-fold lower than the previous one. B11 returned a Kd of 0.017 ± 0.0016 µM. In the case of B12, binding was characterised by a dissociation constant (Kd) of 0.057 ± 0.007 µM. Against the preceding molecule, the Kd is about 3.4-fold higher. In turn, B13 returned a Kd of 0.0274 ± 0.0023 µM. This Kd is about 2.1-fold lower than that of the molecule before. Molecule B14 displayed a Kd of 0.00748 ± 0.00031 µM. Compared with the last molecule, the Kd is about 3.7-fold lower. The figure for B15 is 0.0248 ± 0.0032 µM; for B16 it is 0.0304 ± 0.0018 µM.

In turn, B17 displayed a dissociation constant (Kd) of 0.0074 ± 0.0005 µM. This Kd lies about 4.1-fold lower than the previous one. B18 yielded a dissociation constant (Kd) of roughly 0.036 µM.

Molecule B19 yielded a Kd of 0.054 ± 0.009 µM. The figure for B20 is 0.0121 ± 0.0009 µM; for B21 it is 0.021 ± 0.0013 µM.

Molecule B22 had a Kd of 0.0246 ± 0.0018 µM. This Kd and that of the molecule before are within 1.5-fold of each other. B23: the dissociation constant Kd is 0.0079 ± 0.0004 µM. Take B24: binding was put at a Kd of 0.0192 ± 0.0021 µM. Under B25 stands 0.0163 ± 0.0014 µM; under B26, 0.044 ± 0.007 µM; under B27, 0.0354 ± 0.0022 µM.
